Blank lines part the entries; values can stand above or below the binder they belong to.
What was measured:
[1] = target: cyno IL-36R (BIACORE antigen of Table 4) (cynomolgus monkey); assay: BIACORE T200 SPR, cyno IL-36R
human IL-36R (on cells) [2] = target: T1, human IL-36R (on cells) (human, UniProt Q9HB29 20-575); assay: cell-based or functional assay
T1 sequence (looked up): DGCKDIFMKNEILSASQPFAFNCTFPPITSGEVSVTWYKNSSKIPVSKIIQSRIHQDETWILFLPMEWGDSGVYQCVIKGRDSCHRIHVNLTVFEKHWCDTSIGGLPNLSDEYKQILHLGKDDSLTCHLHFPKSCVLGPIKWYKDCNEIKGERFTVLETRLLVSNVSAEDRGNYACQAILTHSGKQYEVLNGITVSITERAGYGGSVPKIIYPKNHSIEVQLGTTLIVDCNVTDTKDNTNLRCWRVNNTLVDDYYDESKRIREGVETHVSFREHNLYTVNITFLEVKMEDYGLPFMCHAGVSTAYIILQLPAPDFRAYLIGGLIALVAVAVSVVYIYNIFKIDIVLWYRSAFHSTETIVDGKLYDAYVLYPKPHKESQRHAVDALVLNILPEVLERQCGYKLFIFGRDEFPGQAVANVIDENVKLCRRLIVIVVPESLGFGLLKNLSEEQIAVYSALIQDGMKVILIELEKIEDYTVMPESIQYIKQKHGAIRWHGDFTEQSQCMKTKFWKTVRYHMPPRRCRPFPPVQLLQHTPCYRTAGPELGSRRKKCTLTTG

human IL-36R (on cells) [3] = target: T1, human IL-36R (on cells); assay: flow cytometry on CHO-K cells co-expressing human IL-36R and human IL-1RAcP
Method: The binding of antibodies to CHO-K cells stably co-expressing human IL-36R and human IL-1RAcP was examined. Cynomolgus IL-36R allelic variation was examined by Sanger sequencing, and four distinct allelic variants were identified within cynomolgus monkey populations. The binding of antibodies to CHO-K cells stably co-expressing cynomolgus monkey IL-36R variant 1 and cynomolgus monkey IL-1RAcP was also examined for APE6155 and APE7247. Each antibody was incubated with CHO cells harvested using accutase, washed, and seeded at 500,000 cells per well. Cells were incubated with antibodies at concentrations ranging from 33 nM-16 pM for 30 minutes at 4° C., and washed three times with FACS staining buffer. Cells were spun and aspirated, and then the incubated with 100 μl paraformaldehyde for 10 minutes at room temperature. Cells were again washed, aspirated, and stained with 100 μL of anti-human IgG Alexa 647 for 20 minutes at 4° C. Cells were resuspended in 100 μL FACS analysis buffer before analysis on the FACS Array (BD Biosciences).

[4] = target: cynomolgus monkey IL-36R variant 1 (on cells) (cynomolgus monkey); assay: flow cytometry on CHO-K cells co-expressing cynomolgus IL-36R variant 1 and cynomolgus IL-1RAcP
[5] = target: T2, extracellular domain of human IL-36R (human, UniProt Q9HB29 20-335); assay: BIACORE T200 SPR, human IL-36R extracellular domain immobilised, antibody injected
T2 construct: extracellular domain; Immobilised on the chip in the BIACORE assay; soluble and bead-coupled in the KINEXA assay; also called soluble human IL-36R extracellular domain
T2 sequence (looked up): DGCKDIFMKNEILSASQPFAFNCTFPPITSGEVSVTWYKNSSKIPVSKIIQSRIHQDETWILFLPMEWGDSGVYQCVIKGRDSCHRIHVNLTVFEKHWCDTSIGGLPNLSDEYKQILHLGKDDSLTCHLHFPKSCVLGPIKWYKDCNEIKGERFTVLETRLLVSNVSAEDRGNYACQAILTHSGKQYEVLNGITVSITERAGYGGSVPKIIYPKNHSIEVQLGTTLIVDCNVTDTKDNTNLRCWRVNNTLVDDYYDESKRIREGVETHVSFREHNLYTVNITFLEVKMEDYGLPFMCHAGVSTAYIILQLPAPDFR
Method: The binding affinities of various purified antibodies comprising immunoglobulin heavy chain (HC) and light chain (LC) polypeptides described herein were evaluated using BIACORE™ T200 […] assays. BIACORE™ T200 evaluation software (GE Healthcare, Buckinghamshire, United Kingdom) is used to determine antibody-antigen binding kinetics and affinity. The extracellular domain of human IL-36R was immobilized at approximately 100 RU onto a CMS sensor chip (GE Healthcare, Waukesha, Wis.) using amine coupling chemistry. HBS-EP+ buffer (0.01 M HEPES, 0.15 M NaCl, 3 mM EDTA, 0.05% Polysorbate, pH 7.6) (Teknova, Hollister, Calif.) was used to reconstitute each antibody at various concentrations Each antibody concentration was then injected for two to three minutes over immobilized antigen at a flow rate of 30 μL/min, and allowed to dissociate for 15 minutes. The surface was regenerated with 60 μL of 3 M MgCl₂ after each cycle. Association and dissociation kinetic constants (kon and koff) were fit globally using a 1:1 binding model with mass transport with the BIACORE™ T200 evaluation software in order to report on- and off-rates (ka and kd, respectively), as well as affinities (KD).

[6] = target: T2, extracellular domain of human IL-36R; assay: KINEXA 3000 solution-phase equilibrium, soluble human IL-36R extracellular domain
Method: The binding affinities of various purified antibodies comprising immunoglobulin heavy chain (HC) and light chain (LC) polypeptides described herein also were evaluated using a KINEXA® 3000 assay (Sapidyne Instruments, Boise, Id.) assays. KINEXA® technology measures the amount of unbound/free antibody molecule in solution phase after incubation with varying concentrations of antigen. Measuring binding events in the solution phase with micro beads for maximized surface area avoids mass transport limitations and mobility effects inherent to methods that measure binding to a solid phase. For each experiment, 50 μg of soluble human or cyno IL-36R extracellular domain was amine-coupled to 50 mg of UltraLink Biosupport beads (Thermo Fisher Scientific, Waltham, Mass.). […] Antibody-antigen solution was then flowed over antigen-coupled beads at a rate of 0.25 mL/min. Free antibody captured by beads was detected using ALEXA FLUOR™ 647-conjugated AffiniPure Donkey Anti-Human IgG (H+L) (Jackson ImmunoResearch, West Grove, Pa.) (500 ng/ml). The KD and/or ABC (active binding concentration) of antibody was obtained from non-linear regression analysis using a one-site homogeneous binding model in the KINEXA™ Pro Software.

[7] = target: cynomolgus monkey IL-36R variant 1 (on cells) (cynomolgus monkey); assay: cell-based or functional assay
human IL-36R (on cells) [8] = target: T1, human IL-36R (on cells); assay: cell-based or functional assay; remark: listed apart in the source
human IL-36R (on cells) [9] = target: T1, human IL-36R (on cells); assay: cell-based or functional assay; remark: listed apart in the source
[10] = target: cynomolgus monkey IL-36R variant 2 (on cells) (cynomolgus monkey), A0A2K5; assay: cell-based or functional assay
[11] = target: cynomolgus monkey IL-36R variant 3 (on cells) (cynomolgus monkey), A0A2K5; assay: cell-based or functional assay
[12] = target: cynomolgus IL-36R (on cells, allelic variant not stated) (cynomolgus monkey), A0A2K5; assay: cell-based or functional assay
Chain of cynomolgus IL-36R (on cells, allelic variant not stated) (cynomolgus monkey), A0A2K5 (chain, as listed by the source mutant): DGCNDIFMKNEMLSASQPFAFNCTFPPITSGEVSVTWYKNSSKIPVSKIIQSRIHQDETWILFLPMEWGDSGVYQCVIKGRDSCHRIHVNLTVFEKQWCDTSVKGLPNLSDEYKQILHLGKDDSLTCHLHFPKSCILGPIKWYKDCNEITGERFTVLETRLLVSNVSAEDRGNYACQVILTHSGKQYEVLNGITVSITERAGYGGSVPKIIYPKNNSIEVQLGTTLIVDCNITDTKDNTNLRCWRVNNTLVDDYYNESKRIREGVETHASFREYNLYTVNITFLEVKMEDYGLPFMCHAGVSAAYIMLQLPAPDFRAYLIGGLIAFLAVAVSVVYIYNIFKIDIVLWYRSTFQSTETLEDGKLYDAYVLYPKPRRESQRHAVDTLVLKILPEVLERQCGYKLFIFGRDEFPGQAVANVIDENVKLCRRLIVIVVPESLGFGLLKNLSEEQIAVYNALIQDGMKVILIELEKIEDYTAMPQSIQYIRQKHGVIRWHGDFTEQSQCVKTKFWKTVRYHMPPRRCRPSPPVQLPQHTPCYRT

Chain of cynomolgus monkey IL-36R variant 3 (on cells) (cynomolgus monkey), A0A2K5 (chain, as listed by the source mutant): as above
Chain of cynomolgus monkey IL-36R variant 2 (on cells) (cynomolgus monkey), A0A2K5 (chain, as listed by the source mutant): as above

Kd [1]: < 0.02 nM
EC50 (nM), HEK human IL-36R IL-8 luciferase reporter assay, 20 ng/ml hIL-36β (human IL-36R (on cells) [2]): 0.114 nM
EC50 (nM), HEK human IL-36R IL-8 luciferase reporter assay, 50 ng/ml hIL-36α (human IL-36R (on cells) [2]): 0.066 nM
EC50 (nM), HEK human IL-36R IL-8 luciferase reporter assay, 200 ng/ml hIL-36γ (human IL-36R (on cells) [2]): 0.104 nM
EC50 (human IL-36R (on cells) [3]): 2.8 nM
EC50 [4]: 3.3 nM
Kd [5]: < 0.02 nM
Kd [6]: 0.1 nM
EC50 (nM), IL-8 luciferase reporter assay, 300 ng/ml IL-36γ (Cyno IL-36R variant 1) [7]: 0.079 nM
EC50 (nM), IL-8 secretion by primary human keratinocytes, 1 ng/ml human IL-36β (human IL-36R (on cells) [8]): 0.336 nM
EC50 (nM), IL-8 secretion by primary human keratinocytes, 10 ng/ml human IL-36α (human IL-36R (on cells) [8]): 0.142 nM
EC50 (nM), IL-8 secretion by primary human keratinocytes, 100 ng/ml human IL-36γ (human IL-36R (on cells) [8]): 0.074 nM
B1: Hzd 18D4 (APE7247) (antibody, V domains shown)
VH: DVQFQESGPGLVKPSQTLSLTCTVTGYSITADFAWNWIRQPPGKGLEWIGYISYSGDTNYNPSLKSRVTITRDTSKNQFSLKLSSVTAADTAVYFCAIRGPYSFTYWGQGTLVTVSS
VL: DIQMTQSPSSLSASVGDRVTITCRASQWINNYLNWYQQKPGKAPKLLIYYTSMLHSGVPSRFSPSGSGNDYTFTISSLQPEDIATYYCQQGHTLPWTFGGGTKVEIKR
notes: also called APE6903; APE07247

Kd [1]: 0.126 nM
EC50 (nM), HEK human IL-36R IL-8 luciferase reporter assay, 50 ng/ml hIL-36α (human IL-36R (on cells) [2]): 0.17 nM
EC50 (nM), HEK human IL-36R IL-8 luciferase reporter assay, 200 ng/ml hIL-36γ (human IL-36R (on cells) [2]): 0.12 nM
Kd [5]: 0.077 nM
Kd [6]: 0.008 nM
EC50 (nM), IL-8 secretion by primary human keratinocytes, 1 ng/ml human IL-36β (human IL-36R (on cells) [8]): 0.053 nM
EC50 (nM), IL-8 secretion by primary human keratinocytes, 10 ng/ml human IL-36α (human IL-36R (on cells) [8]): 0.047 nM
EC50 (nM), IL-8 secretion by primary human keratinocytes, 100 ng/ml human IL-36γ (human IL-36R (on cells) [8]): 0.04 nM
EC50 (nM), IL-8 secretion by primary human monocytes, human IL-36α (human IL-36R (on cells) [9]): 0.035 nM
EC50 (nM), IL-8 secretion by primary human monocytes, human IL-36β (human IL-36R (on cells) [9]): 0.033 nM
EC50 (nM), IL-8 secretion by primary human monocytes, human IL-36γ (human IL-36R (on cells) [9]): 0.027 nM
B2: Humanized (HzD) 1D9 (APE5281) (antibody, V domains shown)
VH: QVQLMQSGAEVKKPGASVKVSCKASGFTFTSYDINWVRQAPGQRLEWMGWIYPGDSSTKYNEKFKGRVTITADKSANTAYMELASLRSEDTAVYFCTRSFYTMDYWGQGTTVTVSS
VL: DIVMTQSPLSLPVTPGEPASISCRSSKSLLHSNANTYLYWFLQKPGQSPQLLISRMSNLASGVPDRFSGSGSGTDFTLKISRVEAEDVGVYYCMQHLEYPFTFGQGTKLEIK
notes: also called 1D9 Humanized

EC50 (nM), HEK human IL-36R IL-8 luciferase reporter assay, 20 ng/ml hIL-36β (human IL-36R (on cells) [2]): 0.22 nM
EC50 (nM), HEK human IL-36R IL-8 luciferase reporter assay, 50 ng/ml hIL-36α (human IL-36R (on cells) [2]): 0.23 nM
EC50 (nM), HEK human IL-36R IL-8 luciferase reporter assay, 200 ng/ml hIL-36γ (human IL-36R (on cells) [2]): 0.4 nM
EC50 (human IL-36R (on cells) [3]): 1.5 nM
EC50 [4]: 2.4 nM
Kd [5]: 0.071 nM
Kd [6]: 0.169 nM
EC50 (nM), IL-8 luciferase reporter assay, 300 ng/ml IL-36γ (Cyno IL-36R variant 1) [7]: 0.042 nM
EC50 (nM), IL-8 secretion by primary human keratinocytes, 1 ng/ml human IL-36β (human IL-36R (on cells) [8]): 0.227 nM
EC50 (nM), IL-8 secretion by primary human keratinocytes, 10 ng/ml human IL-36α (human IL-36R (on cells) [8]): 0.125 nM
EC50 (nM), IL-8 secretion by primary human keratinocytes, 100 ng/ml human IL-36γ (human IL-36R (on cells) [8]): 0.093 nM
EC50 (nM), IL-8 secretion by primary human monocytes, human IL-36α (human IL-36R (on cells) [9]): 0.088 nM
EC50 (nM), IL-8 secretion by primary human monocytes, human IL-36β (human IL-36R (on cells) [9]): 0.117 nM
EC50 (nM), IL-8 secretion by primary human monocytes, human IL-36γ (human IL-36R (on cells) [9]): 0.078 nM
EC50 (nM), IL-8 luciferase reporter assay, 300 ng/ml IL-36γ (Cyno IL-36R variant 2) [10]: 0.043 nM
EC50 (nM), IL-8 luciferase reporter assay, 300 ng/ml IL-36γ (Cyno IL-36R variant 3) [11]: 0.21 nM
EC50 (nM), HEK cyno IL-36R IL-8 luciferase reporter assay, 300 ng/ml cIL-36γ [12]: 0.31 nM
EC50 (nM), HEK cyno IL-36R IL-8 luciferase reporter assay, 2 µg/ml cIL-36α [12]: 0.08 nM
EC50 (nM), HEK cyno IL-36R IL-8 luciferase reporter assay, 10 µg/ml cIL-36β [12]: 0.13 nM
EC50 (nM), IL-8 secretion by primary cynomolgus PBMCs, 10 ng/ml cyno IL-36β [12]: 1.5 nM
EC50 (nM), IL-8 secretion by primary cynomolgus PBMCs, 50 ng/ml cyno IL-36α [12]: 1.2 nM
EC50 (nM), IL-8 secretion by primary cynomolgus PBMCs, 250 ng/ml cyno IL-36γ [12]: 0.89 nM
EC50 (nM), IL-8 secretion by primary cynomolgus keratinocytes, 10 ng/ml cyno IL-36β [12]: 1.4 nM
EC50 (nM), IL-8 secretion by primary cynomolgus keratinocytes, 50 ng/ml cyno IL-36α [12]: 1.1 nM
EC50 (nM), IL-8 secretion by primary cynomolgus keratinocytes, 250 ng/ml cyno IL-36γ [12]: 1.1 nM
B3: Hzd 5D3 (APE6155) (antibody, V domains shown)
VH: QVQLVQSGAEVKKPGASVKVSCKASGYTFTNYWMNWVRQAPRQGLEWMGMFHPTGDVTRLNQKFKDRVTMTRDTSTSTVYMELSSLRSEDTAVYYCARTTSMIIGGFAYWGQGTLVTVSS
VL: DIVMTQTPLSLSVTPGQPASISCRSSKSLLHRNAITYFYWYLHKPGQPPQLLIYQMSNLASGVPDRFSGSGSGTDFTLKISRVEAEDVGVYYCAQNLELPLTFGGGTKVEIK
notes: also called APE6917; APE06155

— patent US20200087408A1 (ANAPTYSBIO, published 2020)
